Measured values published in the supplement of paper PMC7877785.
± gives the uncertainty stated by the source.

Experiment: self-splicing fitness, log relative to wild type (ln ratio); higher = more splicing; Tetrahymena group I intron in knt gene, E. coli kanamycin selection, DiMSum; sequences stand for … in CUCUCU…GGAGGGAAAAGUUAUCAGGCAUGCACCUGGUAGCUAGUCUUUAAACCAAUAGAUUGCAUCGGUUUAAAAGGCAAGACCGUCAAAUUGCGGGAAAGGGGUCAACAGCCGUUCAGUACCAAGUCUCAGGGGAAACUUUGAGAUGGCCUUGCAAAGGGUAUGGUAAUAAGCUGACGGACAUGGUCCUAACCACGCAGCCAAGUCCUAAGUCAACAGAUCUUCUGUUGAUAUGGAUGCAGUUCACAGACUAAAUGUCGGUCGGGGAAGAUGUAUUCUUCUCAUAAGAUAUAGUCGGACCUCUCCUUAAUGGGAGCUAGCGGAUGAAGUGAUGCAACACUGGAGCCGCUGGGAACUAAUUUGUAUGCGAAAGUAUAUUGAUUAGUUUUGGAGUACUCGUGGUCG
In short: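 The eight P1ex-region nucleotides of an intron in the knt kanamycin-resistance gene on pET-22b(+) were all randomised and the library put into E. coli BL21(DE3). Six replicate transformations were grown overnight at 37°C or 30°C on LB agar with or without 25 μg/mL kanamycin, together with 100 μg/mL carbenicillin, 50 μM IPTG and 0.2% rhamnose. Colonies were pooled and amplicon-sequenced on an Illumina HiSeq 2500. Fitness from DiMSum is the error-weighted combination of wild-type-normalised replicate fold changes, kanamycin over none.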

Sequence	self-splicing fitness (ln) (30 °C)	self-splicing fitness (ln) (37 °C)
CGAGAGCAAUAUUACGGAUA	-2.25 ± 0.37	-1.82 ± 0.41
GGAAAGCAAUAUUACGGACC	-2.35 ± 0.36	-1.44 ± 0.41
UCCCAGCAAUAUUACGAACA	-1.51 ± 0.13	-0.139 ± 0.12
ACUUAGCAAUAUUACGUACU	-0.497 ± 0.094	-0.384 ± 0.1
UUAAAGCAAUAUUACGUACU	-0.208 ± 0.079	-0.142 ± 0.099
ACGAAGCAAUAUUACGCUCU	-1.35 ± 0.094	-0.15 ± 0.1
UCGCAGCAAUAUUACGCUAG	-4.54 ± 0.25	-2.18 ± 0.2
UCGGAGCAAUAUUACGCGUC	-2.14 ± 0.47	–
AGUUAGCAAUAUUACGACAC	-0.65 ± 0.12	0.204 ± 0.2
UCUUAGCAAUAUUACGCUUA	–	-1.22 ± 0.28
CCCCAGCAAUAUUACGACUA	-2.66 ± 0.17	-2.93 ± 0.28
CUCAAGCAAUAUUACGGCUA	–	-2.22 ± 0.35
GGGAAGCAAUAUUACGGGCC	-2.03 ± 0.14	-0.949 ± 0.13
ACCGAGCAAUAUUACGGAAC	-3.03 ± 0.29	-1.63 ± 0.21
GCUUAGCAAUAUUACGAUAC	-1.65 ± 0.2	0.185 ± 0.23
GUUAAGCAAUAUUACGUUCU	-1.03 ± 0.085	-0.445 ± 0.091
CCUAAGCAAUAUUACGCGCG	-3.42 ± 0.39	-1.9 ± 0.25
UGGGAGCAAUAUUACGCUAG	-2.79 ± 0.32	-1.99 ± 0.36
UCGUAGCAAUAUUACGCUUG	-2.53 ± 0.17	-0.409 ± 0.14
AUGAAGCAAUAUUACGGACG	-0.554 ± 0.066	0.536 ± 0.091
GAUAAGCAAUAUUACGACUU	0.544 ± 0.08	0.0887 ± 0.095
GCUUAGCAAUAUUACGUGGA	-2.06 ± 0.13	-0.531 ± 0.11
UCAAAGCAAUAUUACGAAGU	-2.96 ± 0.16	-2.39 ± 0.24
CAUCAGCAAUAUUACGCUCG	-0.495 ± 0.064	-0.134 ± 0.079
GUCUAGCAAUAUUACGAUCG	-3.06 ± 0.17	-1.09 ± 0.16
UAUAAGCAAUAUUACGGGUA	-0.177 ± 0.1	0.401 ± 0.12

Sequence	self-splicing fitness (ln) (30 °C)	self-splicing fitness (ln) (37 °C)
GUAAAGCAAUAUUACGACGA	0.208 ± 0.073	1.1 ± 0.1
UUGAAGCAAUAUUACGGUCG	0.0283 ± 0.088	0.283 ± 0.1
CAGGAGCAAUAUUACGACAU	-3.768 ± 0.031	-2.94 ± 0.046
AGGUAGCAAUAUUACGACGU	0.156 ± 0.014	0.233 ± 0.033
AUGUAGCAAUAUUACGUCAU	-1.81 ± 0.059	-0.896 ± 0.069
GCCGAGCAAUAUUACGAUCG	-2.36 ± 0.26	–
CAAUAGCAAUAUUACGAGAG	-3.64 ± 0.23	-1.52 ± 0.12
CAAUAGCAAUAUUACGUGGC	-3.53 ± 0.16	-2.72 ± 0.2
UUCUAGCAAUAUUACGCUCA	-0.563 ± 0.15	-0.208 ± 0.19
ACUAAGCAAUAUUACGCAUU	-1.82 ± 0.11	-0.321 ± 0.12
AUGAAGCAAUAUUACGGAUA	-0.747 ± 0.088	-0.113 ± 0.11
AAGGAGCAAUAUUACGCCGA	-2.33 ± 0.18	-0.979 ± 0.26
GGGUAGCAAUAUUACGUGGG	-4.13 ± 0.32	-2.29 ± 0.19
UAGGAGCAAUAUUACGGUAU	-2.93 ± 0.36	-2.66 ± 0.3
GAAUAGCAAUAUUACGGCUU	0.268 ± 0.075	0.303 ± 0.11
CCCGAGCAAUAUUACGUUCG	-4.22 ± 0.42	-2.55 ± 0.3
UGACAGCAAUAUUACGAUGG	-1.5 ± 0.084	0.221 ± 0.12
UACGAGCAAUAUUACGUUGG	–	-2.22 ± 0.26
AACGAGCAAUAUUACGGAAC	-2.26 ± 0.23	–
AGGAAGCAAUAUUACGCAUG	-3.2 ± 0.16	-1.31 ± 0.12
CACAAGCAAUAUUACGAGUG	-4.41 ± 0.15	-2.02 ± 0.12
UUCUAGCAAUAUUACGUCGU	-3.47 ± 0.26	-2.19 ± 0.17
GGAGAGCAAUAUUACGUGUG	-4.29 ± 0.34	-3.29 ± 0.27
UGUCAGCAAUAUUACGUAAG	-0.352 ± 0.07	0.0208 ± 0.087
CCUUAGCAAUAUUACGCUUC	-3.71 ± 0.31	-1.83 ± 0.24
UCCUAGCAAUAUUACGCCUU	-2.98 ± 0.33	-2.34 ± 0.35

Sequence	self-splicing fitness (ln) (30 °C)	self-splicing fitness (ln) (37 °C)
UAGGAGCAAUAUUACGAACA	-2.08 ± 0.29	–
UAAUAGCAAUAUUACGAUGA	-2.56 ± 0.19	-1.48 ± 0.16
UAAGAGCAAUAUUACGCUGG	-2.31 ± 0.26	-2.37 ± 0.27
CGUCAGCAAUAUUACGCAAA	-2.96 ± 0.17	-1.12 ± 0.16
ACUAAGCAAUAUUACGUACU	0.135 ± 0.084	0.635 ± 0.12
ACGUAGCAAUAUUACGCGUA	-2.22 ± 0.17	-1.74 ± 0.16
AAGGAGCAAUAUUACGAGAU	–	-2.41 ± 0.24
GCUAAGCAAUAUUACGUUCU	-1.04 ± 0.052	-0.467 ± 0.066
UACCAGCAAUAUUACGGGAA	-0.38 ± 0.087	-0.618 ± 0.08
AAUUAGCAAUAUUACGGAGC	-2.52 ± 0.3	-2.64 ± 0.33
UCCAAGCAAUAUUACGUUGU	-3.79 ± 0.16	-1.7 ± 0.13
CGGGAGCAAUAUUACGAUCA	–	-1.75 ± 0.43
GACGAGCAAUAUUACGUUUU	-4.36 ± 0.28	-1.61 ± 0.13
ACAGAGCAAUAUUACGGUCA	-2.73 ± 0.22	-0.944 ± 0.17
UUAAAGCAAUAUUACGAAGC	-3.34 ± 0.32	-2.25 ± 0.28
AAGAAGCAAUAUUACGUAAA	-2.27 ± 0.1	-1.14 ± 0.14
UACUAGCAAUAUUACGAUCA	-1.21 ± 0.07	-0.774 ± 0.063
AAGGAGCAAUAUUACGCGCG	-2.19 ± 0.24	-0.975 ± 0.23
AUAAAGCAAUAUUACGUAAA	-2.39 ± 0.11	-1.03 ± 0.12
ACUGAGCAAUAUUACGUCGG	-2.82 ± 0.16	-2.47 ± 0.21
UACGAGCAAUAUUACGAGGU	-3.41 ± 0.19	-3.16 ± 0.17
AUGUAGCAAUAUUACGCGAG	-1.71 ± 0.13	-0.706 ± 0.13
AUUGAGCAAUAUUACGAGGG	-2.87 ± 0.14	-2.85 ± 0.29
AUAGAGCAAUAUUACGCGUA	-0.662 ± 0.1	-0.524 ± 0.13
UAGCAGCAAUAUUACGCCCA	-0.744 ± 0.3	0.445 ± 0.47
CGACAGCAAUAUUACGGCUC	-2.5 ± 0.11	-1.89 ± 0.14
